From doi:10.1101/2021.12.09.472013 (bioRxiv, 2021) come the findings set out here.

This data set concerns the molecule itself. Kind of data set: fluorescence fluctuation spectroscopy.

B1: SS-EGFP-torsinA^ΔNTD (natural protein, UniProt O14656 21-332, looked up)
chain: VEPISCLFAECCGQKRSLSREALQKDLDDNLFGQHLAKKIILNAVFGFINNPKPKKPLTLSLHGWTGTGKNFVSKIIAENIYEGGLNSDYVHLFVATLHFPHASNITLYKDQLQLWIRGNVSACARSIFIFDEMDKMHAGLIDAIKPFLDYYDLVDGVSYQKAMFIFLSNAGAERITDVALDFWRSGKQREDIKLKDIEHALSVSVFNNKNSGFWHSSLIDRNLIDYFVPFLPLEYKHLKMCIRVEMQSRGYEIDEDIVSRVAEEMTFFPKEERVFSDKGCKTVFTKLDYYYDD
On to B1, for which the normalized brightness b was roughly 13.

B2: SS-torsinA^WT-EGFP (natural protein, UniProt O14656 21-332, looked up)
chain: VEPISLGLALAGVLTGYIYPRLYCLFAECCGQKRSLSREALQKDLDDNLFGQHLAKKIILNAVFGFINNPKPKKPLTLSLHGWTGTGKNFVSKIIAENIYEGGLNSDYVHLFVATLHFPHASNITLYKDQLQLWIRGNVSACARSIFIFDEMDKMHAGLIDAIKPFLDYYDLVDGVSYQKAMFIFLSNAGAERITDVALDFWRSGKQREDIKLKDIEHALSVSVFNNKNSGFWHSSLIDRNLIDYFVPFLPLEYKHLKMCIRVEMQSRGYEIDEDIVSRVAEEMTFFPKEERVFSDKGCKTVFTKLDYYYDD
As for B2, the normalized brightness b is greater than 3.

B3: SS-EGFP-torsinA^WT (natural protein, UniProt O14656 21-332, looked up)
chain: B2 chain
Regarding B3, the “stoichiometry N” value is no less than 3.

B4: SS-EGFP-torsinA^50-332 (domain or fragment, UniProt O14656 50-332, looked up)
chain: CGQKRSLSREALQKDLDDNLFGQHLAKKIILNAVFGFINNPKPKKPLTLSLHGWTGTGKNFVSKIIAENIYEGGLNSDYVHLFVATLHFPHASNITLYKDQLQLWIRGNVSACARSIFIFDEMDKMHAGLIDAIKPFLDYYDLVDGVSYQKAMFIFLSNAGAERITDVALDFWRSGKQREDIKLKDIEHALSVSVFNNKNSGFWHSSLIDRNLIDYFVPFLPLEYKHLKMCIRVEMQSRGYEIDEDIVSRVAEEMTFFPKEERVFSDKGCKTVFTKLDYYYDD
With B4, the normalized brightness b is roughly 8.

By stoichiometry N is commonly meant the number of molecules, sites or subunits per partner or assembly.
